{
  "source": "patent US20050037969A1",
  "target": "GST-DLG1 fusion protein (PDZ domains 1-2) (human) (UniProt Q12959)",
  "test": "variant of the G assay, 100 uM 8-mer against 20 uM biotin-labeled AA2L",
  "data": [
    {"substance": "eight amino acid CLASP-2 peptide MTSSSSVV (unlabeled)", "values": [
      {"measurement": "percent inhibition at 100 uM", "result": "> 50", "unit": "%"}
    ]}
  ]
}
